{"source": "the nanobody polyreactivity screen of Harvey et al. (2022)", "data": [{"assay": "yeast display, Sf9 membrane polyspecificity reagent, FACS + sequencing; frameworks hold sequencing errors", "in_short": "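Nanobodies from a synthetic yeast display library (Saccharomyces cerevisiae BJ5465), induced 36–48 hours with galactose, were stained 1 hour at 4 °C with 10% biotinylated, detergent-solubilized Sf9 membrane reagent, enriched on streptavidin microbeads, then FACS-sorted. Anti-HA (expression) and streptavidin (reagent binding) fluorescence set low and high (top ~1%) gates. Polyreactivity labels come from the gate of origin. Genes were colony-PCR amplified, MiSeq 2 × 250 sequenced and filtered by CDR length.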", "values": [{"sequence": "QVQLVESGGGLVQAGGSLRLSCAASGLTFGAYAMGWYRQAPGKEREFVAAITYSGGSTNYADSVKGRFTISRDNAMNTVYLQMNSLKPEDTAVYYCNAGYYSPWAFYPYDYWGQGTQVTVSS", "polyreactivity (PSR sort gate)": "high polyreactivity"}, {"sequence": "QVQLVESGGGLVQAGGSLRLSCAASGLTFGAYAMGWYRQAPGKERELVSAISWSGNTYYADSVKGRFTISRDNAKNTVYLQMNSLKPEDTAGYYCAVRSYGHGFDYWGQGTQVTVSS", "polyreactivity (PSR sort gate)": "high polyreactivity"}, {"sequence": "QVQLVESGGGLVQAGGSLRLSCAASGLTFGGNAMGWYSQAPGKERELVAALSWSDDTTDYADSVKGRFTISRDNAKYTVYLQMNSLKPEDTAVYYCAARLPFEHVDYWGQGTQVTVSS", "polyreactivity (PSR sort gate)": "low polyreactivity"}, {"sequence": "QVQLVESGGGLVQAGGSLRLSCAASGLTFGGYAMGWYRQAPGKERELVAAISRSGTSTYYADSVKGRFTISRDNAKNTVYLQMNSLKPEDTAVYYCAKELYSWLQGYRGEGTMDYWGQGTQVTVSS", "polyreactivity (PSR sort gate)": "high polyreactivity"}, {"sequence": "QVQLVESGGGLVQAGGSLRLSCAASGLTFGIYDMGWYRQAPGKERELVAGIRWSGGDSTYYADSVKGRFTNSRDNAKNTVYLQMNSLKPEDTAVYYCAARLYRWGGGLSRDKHGYWGQGTQVTVSS", "polyreactivity (PSR sort gate)": "low polyreactivity"}, {"sequence": "QVQLVESGGGLVQAGGSLRLSCAASGLTFGNYAMGWDRQAPGKERELVAAISWGGGITYYADSVKGRFTISRDIAKNTVYLQMNSLKPEDTAVYYCAADVYFNSTPDYLYDYWGQGTQVTVSS", "polyreactivity (PSR sort gate)": "low polyreactivity"}, {"sequence": "QVQLVESGGGLVQAGGSLRLSCAASGLTFGPYAMGWYRQAPGKERELVAAITSGGRTYYADSVKGRFTISRDNAKNTVYLKMNSLKPEDTAVYYCAADPLSGYDYWGQGTQVTVSS", "polyreactivity (PSR sort gate)": "low polyreactivity"}, {"sequence": "QVQLVESGGGLVQAGGSLRLSCAASGLTFGSKAMGWYRQAPGKERELLAAISWNGGSTSYADSVKGRFTISRDNAKHTVYLQMNSLKPEDTAVNYCAADYFDSSYQPTDSILYEYWGQGTQVTVSS", "polyreactivity (PSR sort gate)": "low polyreactivity"}, {"sequence": "QVQLVESGGGLVQAGGSLRLSCAASGLTFGWNAMGWYRQAPGKERESVAAISYNGVSTHYADSVKGRFTISRDNAKNTVYLQMNSLKPEDTAVYYCAARALTWPYGGTAPRLYNYWGQGTQVTVSS", "polyreactivity (PSR sort gate)": "low polyreactivity"}, {"sequence": "QVQLVESGGGLVQAGGSLRLSCAASGLTFGYYAMGWYRQAPGKERELVAAISSSGGRTYYADSVKGRFTISRDNAKNTVYLQMNSLKPEDSAVYYCAKSRYATQTDYNYWGQGTQVTVSS", "polyreactivity (PSR sort gate)": "high polyreactivity"}, {"sequence": "QVQLVESGGGLVQAGGSLRLSCAASGLTFGYYAMGWYRQAPGKERELVAVISGGGGTHYADSVKGRFTISRDNAKNTVYLQMNSLKPEDTAVYYCAAYTYRRYDYWGQGTQVTVSS", "polyreactivity (PSR sort gate)": "high polyreactivity"}, {"sequence": "QVQLVESGGGLVQAGGSLRLSCAASGLTFHRYAMGWYRQAPGKERELVAAINYSGGRTYYADSVKGRFTISRDNAKNTVYLQMNSLKPEDTAVYYCAASLYRRQMDHWGQGTQVTVSS", "polyreactivity (PSR sort gate)": "high polyreactivity"}, {"sequence": "QVQLVESGGGLVQAGGSLRLSCAASGLTFHYYDMGWYRQAPGKERELVAAISTGGGTYYADSVKGRFTISRDNAKNTVYLQMNSLKPEDTAVYYCAAETQHSYFVFSYYWGQGTQVTVSS", "polyreactivity (PSR sort gate)": "high polyreactivity"}, {"sequence": "QVQLVESGGGLVQAGGSLRLSCAASGLTFIKYAMGWYRQAPGKEREFVADISKRGGTTYYADSVKGRFTISRDTEKNTVYLQMNSLKPEDTAVYYCAARQYLNVYYRYDYWGQGTQVTVSS", "polyreactivity (PSR sort gate)": "high polyreactivity"}, {"sequence": "QVQLVESGGGLVQAGGSLRLSCAASGLTFKKYAMGWYRPAPGKERELVAAISSGSTTYYADSVKGRFTISRDNAKNTVYLQMNSLKPEDTAFYYCAARRKGTVASMGYWGQGTQVTVSS", "polyreactivity (PSR sort gate)": "high polyreactivity"}, {"sequence": "QVQLVESGGGLVQAGGSLRLSCAASGLTFKRNAMGWYRQAPGKERELVAAIRYSTDSTNYADSVKGRFTISRDNAMYTVYLQMNSLKPEDTAVYYCAKDKQDYEYWGQGTQVTVSS", "polyreactivity (PSR sort gate)": "low polyreactivity"}, {"sequence": "QVQLVESGGGLVQAGGSLRLSCAASGLTFKRYAMGWYRQAPGKERELVASITGNGGSTYYADSVKGRFTISRDNAKNTVYLQMNSLKPEDTAVYYCNARRYVRTSQQPLYDYWGQGTQVTVSS", "polyreactivity (PSR sort gate)": "high polyreactivity"}, {"sequence": "QVQLVESGGGLVQAGGSLRLSCAASGLTFKSYAMGWNRQAPGKERELVAVISSSGGRTYYADSVKGRFTISRDNAKNTVYLQMNSLKPEDTAVYYCAADGSYGKWGGHAMYYLGQGTQVTVSS", "polyreactivity (PSR sort gate)": "high polyreactivity"}, {"sequence": "QVQLVESGGGLVQAGGSLRLSCAASGLTFKVNAMGWYRQAPGRGRELVAAISVSGGSTYYADSVKGRFTISRDNAKNTVYLQMNSLKPEDTAVYYCNADFYYRYYGAYDYWGQGTQVTVSS", "polyreactivity (PSR sort gate)": "high polyreactivity"}, {"sequence": "QVQLVESGGGLVQAGGSLRLSCAASGLTFKVYDMGWYRKAPGKERELVAAIWSDGDTYYADSVKGRFTISRDNAKNTVYLQMNSLKPEDTGVYYCAAVPGCTVHFVYGNKYDYWGQGTQVTVSS", "polyreactivity (PSR sort gate)": "low polyreactivity"}, {"sequence": "QVQLVESGGGLVQAGGSLRLSCAASGLTFKYYTMGWYRQAPGKERELVADISRTGRTSYADSVKGRFTISRDNAKNTVYLQMNSLKPEDTAVYYCNALAGIAQRRTGYYNPGDYWGQGTQVTVSS", "polyreactivity (PSR sort gate)": "high polyreactivity"}, {"sequence": "QVQLVESGGGLVQAGGSLRLSCAASGLTFLDYDMGWYRQAPGKERELVADIDWSGGNTYYADSVKGRFTISRDNAKNTVYLQMNSLKPEDTAVYYCNTVTEAVTRRYDYWGQGTQVTVSS", "polyreactivity (PSR sort gate)": "low polyreactivity"}, {"sequence": "QVQLVESGGGLVQAGGSLRLSCAASGLTFLKYAMGWYRQAPGKERELVAAITGSGGRTYYADSVKGRFTISRDNSKNTVYLHMNSLKPEDTAVYYCAADDYFHDDYWGLGTQVTVSS", "polyreactivity (PSR sort gate)": "high polyreactivity"}, {"sequence": "QVQLVESGGGLVQAGGSLRLSCAASGLTFLLNAMGWYRQAPGKERELVAAITWRGGRTYYADSVKGRFTISRDNAKNTVYLQMNSLKPEDTAVYYCAAVPVVQSQPTYYYWGQGTQVTVSS", "polyreactivity (PSR sort gate)": "high polyreactivity"}, {"sequence": "QVQLVESGGGLVQAGGSLRLSCAASGLTFLYNAMGWYRRATGKERELVASITNGGSTNYADSVKGRFTISRDNEKNTVYLQMNSLKPEDTAVYYCAKAAVDVGQRTPWEYDYWGQGTQVTVSS", "polyreactivity (PSR sort gate)": "low polyreactivity"}, {"sequence": "QVQLVESGGGLVQAGGSLRLSCAASGLTFLYYAMGWYRQAPGKERELVAAISRSGGSTYYADSVKGRFTISRDNAKNTVYLQMNSLKPEDTAVYYCAAGRRGGKQGGTRGGDYWGQGTQVTVSS", "polyreactivity (PSR sort gate)": "high polyreactivity"}, {"sequence": "QVQLVESGGGLVQAGGSLRLSCAASGLTFLYYSMGWYRQAPGKERELVAAISTRGGSTYYADSVKGRFTISRDNAKNTVYLQMNSLKPEDTAVYYCNAKLIVTPGRGDYWGQGTQVSVSS", "polyreactivity (PSR sort gate)": "high polyreactivity"}, {"sequence": "QVQLVESGGGLVQAGGSLRLSCAASGLTFNFYAMGWYRQAPGKEREFVAAISRSGGSTHYADSVKGRFTISRDNAKYTVYLQMNSLKPEDTAVYYCAADGGRKNYDYWGQGTQVTVSS", "polyreactivity (PSR sort gate)": "high polyreactivity"}, {"sequence": "QVQLVESGGGLVQAGGSLRLSCAASGLTFNKYAMGWYRQGPGKERELVAAISYRGGSTYYADSVKGRFTISRDNAKNTVYLQMNSLKPEDTAVYYCAVRYWALDDQYRYGSWGQGTQVTVSS", "polyreactivity (PSR sort gate)": "high polyreactivity"}, {"sequence": "QVQLVESGGGLVQAGGSLRLSCAASGLTFPENAMGWYRQAPGKEREMVASISDSDGITFYADSVKGSFTISRDNAKNTVYLQMNSLKPEDTAVYYCAADVAIAIPFSYDYWGQGSQVTVSS", "polyreactivity (PSR sort gate)": "low polyreactivity"}, {"sequence": "QVQLVESGGGLVQAGGSLRLSCAASGLTFPIYAMGWYRQAPGKEREYVAVITTSGGSTYYADSVKGRFTISRDNAKNTVYLQMNSLKPEDTAVYYCNARGIRHYYWGQGTQVTVSS", "polyreactivity (PSR sort gate)": "high polyreactivity"}, {"sequence": "QVQLVESGGGLVQAGGSLRLSCAASGLTFPSYAMGWYRQAPGKERELVAAISSGDSTNYADSVKGRFTISRDNAKNTVYLQMNSLKPEDTAVYYCAVGLPHGGRRLYGSWYRFDYWGQGTQVTVSS", "polyreactivity (PSR sort gate)": "low polyreactivity"}, {"sequence": "QVQLVESGGGLVQAGGSLRLSCAASGLTFPSYAMGWYRQAPGKVSELVAAISARGGGTYYADSVKGRFTISRDNAKNTVYLQMNSLKPEDTAVYYCAADPVYAGPGYDYWGQGTQVTVSS", "polyreactivity (PSR sort gate)": "high polyreactivity"}, {"sequence": "QVQLVESGGGLVQAGGSLRLSCAASGLTFPYNVMGWYRQAPGKERELVASITSVGTTDYADSVKGRFTISRDNAKNTVYLQMNSLNPEDTAVYYCAADVTLFYWWYGKEDYDYWGQGTEVTVSS", "polyreactivity (PSR sort gate)": "low polyreactivity"}, {"sequence": "QVQLVESGGGLVQAGGSLRLSCAASGLTFQEYAMGWYRQAPGKERELVAAISWSGGSTYYADSVKGRFTISRDNAKNTVYLQMNSLKPEDTAVYYCAAEAYEEFITGWYAYDYWGQGTQVTVSS", "polyreactivity (PSR sort gate)": "high polyreactivity"}, {"sequence": "QVQLVESGGGLVQAGGSLRLSCAASGLTFQGYAMGWYRQAPGKERELVAAISSSGDITYYADSVKGRFTISRDNAKNTVYLQMNSLKPEDTAVYYCAAEAEYYVYGTYDYWGQGTQVTVSS", "polyreactivity (PSR sort gate)": "high polyreactivity"}, {"sequence": "QVQLVESGGGLVQAGGSLRLSCAASGLTFQKNVMGWYRQAPGKERELVAAIRASSSSTYYADSVKGRFTISRDNAKNTVYLQMNSLKPEDTAVYYCAAPRLIKYDYWGQGTQVTVSS", "polyreactivity (PSR sort gate)": "high polyreactivity"}, {"sequence": "QVQLVESGGGLVQAGGSLRLSCAASGLTFQPNVMGWYRQATGKERELVAAISVRTTRTYYADSVKGRFTISRDNAKNTVYLQMNSLKPEDTAVYYCNTDISRNYYWALYGYWGQGTQVTVSS", "polyreactivity (PSR sort gate)": "low polyreactivity"}, {"sequence": "QVQLVESGGGLVQAGGSLRLSCAASGLTFQWYTMGWYRQAPGKERELVAAISSRGGSTYYADSVKGRFTISRDNAKNTVYLQMNSLKPEDTAVYYCAVRLRWYFFLMDYWGQGTQVTVSS", "polyreactivity (PSR sort gate)": "high polyreactivity"}, {"sequence": "QVQLVESGGGLVQAGGSLRLSCAASGLTFQYYVMGSYRQAPGKERELVAAISSGGSTYYADSVKGRFTISRDNAKNTVYLQMNSLKPEDTAVYYCAAEAGYAYPLWPYTFPFEYWGQGTQVTVSS", "polyreactivity (PSR sort gate)": "low polyreactivity"}, {"sequence": "QVQLVESGGGLVQAGGSLRLSCAASGLTFRKYAMGWYRPAPGKEREWVAAITRGGSTNYADSVKGRFTISRDNAKNTVYLQMNSLKPEDTAVYYCAAQYTYRFPYPGYATTHDYWGQGTQVTVSS", "polyreactivity (PSR sort gate)": "high polyreactivity"}, {"sequence": "QVQLVESGGGLVQAGGSLRLSCAASGLTFRPYAMGWYRPAPGKERELVAAISTTGGSTYYADSVKGRFTISRDNAKNTVYLQMNSLKPEDTAVYYCAAPTSQRRVLSYRPYGYWGQGTQVTVSS", "polyreactivity (PSR sort gate)": "high polyreactivity"}, {"sequence": "QVQLVESGGGLVQAGGSLRLSCAASGLTFRQYAMGWYRQAPGKERELVAAIDTGASTNYADSVKGRFTISRDNAKNTVYLQMNSLKPEDTAGYYCNAELWYGPDELTGDYWGQGTQVTVSS", "polyreactivity (PSR sort gate)": "low polyreactivity"}]}]}
